Source: patent US20190134153A1, “IMMUNOMODULATORY EFFECT OF INHALED KINASE INHIBITOR PEPTIDES IN LUNG” (MOERAE MATRIX, INC., priority 2017, published 2019)

What was measured:
Assay in all cases: Kinase Profiling Assay
Assay type in all cases: biochemical
Conditions in all cases: 100 μM
ARK5(h) = target: T1, ARK5(h) (Homo sapiens, UniProt O60285)
T1 sequence (O60285 1-661): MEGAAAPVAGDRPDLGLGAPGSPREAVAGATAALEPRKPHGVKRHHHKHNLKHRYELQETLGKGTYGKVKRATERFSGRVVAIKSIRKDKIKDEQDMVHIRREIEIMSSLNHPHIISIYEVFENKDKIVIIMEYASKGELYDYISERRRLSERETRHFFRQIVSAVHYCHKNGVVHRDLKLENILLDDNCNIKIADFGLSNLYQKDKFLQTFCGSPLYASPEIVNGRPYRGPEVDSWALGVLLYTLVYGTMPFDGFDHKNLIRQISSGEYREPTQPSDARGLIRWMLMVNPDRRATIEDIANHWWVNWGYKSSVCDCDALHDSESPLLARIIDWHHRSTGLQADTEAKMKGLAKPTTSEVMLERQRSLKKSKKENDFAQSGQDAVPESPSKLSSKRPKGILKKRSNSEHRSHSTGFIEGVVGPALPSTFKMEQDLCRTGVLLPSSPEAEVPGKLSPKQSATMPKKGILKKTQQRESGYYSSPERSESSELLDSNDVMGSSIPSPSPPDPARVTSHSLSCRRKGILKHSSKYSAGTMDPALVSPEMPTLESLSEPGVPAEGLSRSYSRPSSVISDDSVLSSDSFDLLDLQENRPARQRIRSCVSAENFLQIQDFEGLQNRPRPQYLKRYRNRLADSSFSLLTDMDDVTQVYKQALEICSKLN

Hck(h) activated = Hck(h) activated (Homo sapiens, UniProt P08631)
Chain of Hck(h) activated (P08631 whole entry): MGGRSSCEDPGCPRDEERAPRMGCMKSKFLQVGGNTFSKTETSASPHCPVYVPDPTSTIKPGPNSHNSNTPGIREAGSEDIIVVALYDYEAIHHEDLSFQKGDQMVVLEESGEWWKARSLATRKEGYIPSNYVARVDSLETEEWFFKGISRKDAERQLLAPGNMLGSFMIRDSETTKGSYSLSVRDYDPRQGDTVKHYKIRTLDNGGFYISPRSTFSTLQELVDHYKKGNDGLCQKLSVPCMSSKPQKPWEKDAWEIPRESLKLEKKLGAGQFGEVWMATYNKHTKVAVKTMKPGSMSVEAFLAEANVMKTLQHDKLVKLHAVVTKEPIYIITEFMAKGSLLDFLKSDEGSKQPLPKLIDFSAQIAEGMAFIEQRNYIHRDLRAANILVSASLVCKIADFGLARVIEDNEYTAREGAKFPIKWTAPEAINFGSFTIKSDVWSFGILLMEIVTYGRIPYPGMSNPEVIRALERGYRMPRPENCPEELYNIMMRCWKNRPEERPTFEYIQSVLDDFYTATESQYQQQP

MINK(h) = MINK(h) (Homo sapiens, UniProt Q8N4C8)
NEK3(h) = target: T2, NEK3(h) (Homo sapiens, UniProt P51956)
T2 sequence (P51956 1-506): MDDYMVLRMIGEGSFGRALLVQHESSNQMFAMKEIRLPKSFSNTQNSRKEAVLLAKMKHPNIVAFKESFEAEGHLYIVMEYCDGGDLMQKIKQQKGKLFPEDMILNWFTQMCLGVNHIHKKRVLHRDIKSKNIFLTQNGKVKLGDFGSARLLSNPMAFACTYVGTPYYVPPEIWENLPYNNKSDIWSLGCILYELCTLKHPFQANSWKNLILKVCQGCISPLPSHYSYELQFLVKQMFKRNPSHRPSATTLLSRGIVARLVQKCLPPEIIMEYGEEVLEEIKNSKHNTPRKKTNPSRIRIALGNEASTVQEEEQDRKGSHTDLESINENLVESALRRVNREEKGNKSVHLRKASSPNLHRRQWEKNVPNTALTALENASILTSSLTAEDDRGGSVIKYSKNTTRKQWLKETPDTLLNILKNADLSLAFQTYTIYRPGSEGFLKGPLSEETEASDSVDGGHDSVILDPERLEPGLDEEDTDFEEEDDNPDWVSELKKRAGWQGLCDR

PDGFRα(V561D)(h) = PDGFRα(V561D)(h) (Homo sapiens, UniProt P16234, V561D)
Chain of PDGFRα(V561D)(h) (P16234 24-1089 V561D): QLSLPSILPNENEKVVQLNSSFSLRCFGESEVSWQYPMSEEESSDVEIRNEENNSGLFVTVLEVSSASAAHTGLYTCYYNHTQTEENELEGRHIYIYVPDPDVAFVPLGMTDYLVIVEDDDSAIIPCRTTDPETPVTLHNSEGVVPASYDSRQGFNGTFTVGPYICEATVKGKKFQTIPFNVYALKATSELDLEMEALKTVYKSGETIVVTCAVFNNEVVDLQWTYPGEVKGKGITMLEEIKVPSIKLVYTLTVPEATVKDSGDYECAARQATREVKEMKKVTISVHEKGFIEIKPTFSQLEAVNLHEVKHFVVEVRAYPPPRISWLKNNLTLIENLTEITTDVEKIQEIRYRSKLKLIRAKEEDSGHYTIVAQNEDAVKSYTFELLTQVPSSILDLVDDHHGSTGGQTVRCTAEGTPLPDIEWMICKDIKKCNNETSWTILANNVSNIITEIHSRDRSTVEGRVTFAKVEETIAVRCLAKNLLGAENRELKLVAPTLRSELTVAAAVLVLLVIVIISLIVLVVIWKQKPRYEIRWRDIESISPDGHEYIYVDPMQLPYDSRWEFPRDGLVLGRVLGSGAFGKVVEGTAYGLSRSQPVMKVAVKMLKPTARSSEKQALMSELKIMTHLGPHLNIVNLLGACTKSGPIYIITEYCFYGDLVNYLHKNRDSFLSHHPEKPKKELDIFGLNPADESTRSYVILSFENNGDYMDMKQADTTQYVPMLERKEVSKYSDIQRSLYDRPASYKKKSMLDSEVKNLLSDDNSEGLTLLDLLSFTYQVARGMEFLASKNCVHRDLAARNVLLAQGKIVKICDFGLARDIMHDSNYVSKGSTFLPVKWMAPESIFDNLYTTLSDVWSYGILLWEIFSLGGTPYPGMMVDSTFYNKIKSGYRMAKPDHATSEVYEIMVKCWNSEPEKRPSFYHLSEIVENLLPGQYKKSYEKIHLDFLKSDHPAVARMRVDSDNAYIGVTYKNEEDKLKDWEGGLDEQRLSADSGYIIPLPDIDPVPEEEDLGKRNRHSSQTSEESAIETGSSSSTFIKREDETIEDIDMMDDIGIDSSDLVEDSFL

PDK1(h) = target: T3, PDK1(h) (Homo sapiens, UniProt O15530)
T3 sequence (O15530 1-556): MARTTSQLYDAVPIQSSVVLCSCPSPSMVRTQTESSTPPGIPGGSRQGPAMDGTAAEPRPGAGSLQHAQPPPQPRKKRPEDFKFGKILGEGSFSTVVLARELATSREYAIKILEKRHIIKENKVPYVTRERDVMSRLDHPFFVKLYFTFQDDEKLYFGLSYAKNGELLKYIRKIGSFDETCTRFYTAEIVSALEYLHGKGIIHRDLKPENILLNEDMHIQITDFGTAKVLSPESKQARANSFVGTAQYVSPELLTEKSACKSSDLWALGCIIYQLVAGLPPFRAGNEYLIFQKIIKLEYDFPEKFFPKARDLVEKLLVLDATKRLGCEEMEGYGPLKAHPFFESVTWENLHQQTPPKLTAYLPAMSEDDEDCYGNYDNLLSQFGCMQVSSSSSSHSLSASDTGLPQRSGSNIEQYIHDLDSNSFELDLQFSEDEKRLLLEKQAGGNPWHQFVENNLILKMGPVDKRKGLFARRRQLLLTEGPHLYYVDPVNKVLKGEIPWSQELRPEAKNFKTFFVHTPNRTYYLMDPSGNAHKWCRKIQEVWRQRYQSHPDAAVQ

PKCβII(h) = PKCβII(h) (Homo sapiens, UniProt P05771)
Ros(h) = Ros(h) (Homo sapiens, UniProt P08922)
Chain of Ros(h) (P08922 28-2347): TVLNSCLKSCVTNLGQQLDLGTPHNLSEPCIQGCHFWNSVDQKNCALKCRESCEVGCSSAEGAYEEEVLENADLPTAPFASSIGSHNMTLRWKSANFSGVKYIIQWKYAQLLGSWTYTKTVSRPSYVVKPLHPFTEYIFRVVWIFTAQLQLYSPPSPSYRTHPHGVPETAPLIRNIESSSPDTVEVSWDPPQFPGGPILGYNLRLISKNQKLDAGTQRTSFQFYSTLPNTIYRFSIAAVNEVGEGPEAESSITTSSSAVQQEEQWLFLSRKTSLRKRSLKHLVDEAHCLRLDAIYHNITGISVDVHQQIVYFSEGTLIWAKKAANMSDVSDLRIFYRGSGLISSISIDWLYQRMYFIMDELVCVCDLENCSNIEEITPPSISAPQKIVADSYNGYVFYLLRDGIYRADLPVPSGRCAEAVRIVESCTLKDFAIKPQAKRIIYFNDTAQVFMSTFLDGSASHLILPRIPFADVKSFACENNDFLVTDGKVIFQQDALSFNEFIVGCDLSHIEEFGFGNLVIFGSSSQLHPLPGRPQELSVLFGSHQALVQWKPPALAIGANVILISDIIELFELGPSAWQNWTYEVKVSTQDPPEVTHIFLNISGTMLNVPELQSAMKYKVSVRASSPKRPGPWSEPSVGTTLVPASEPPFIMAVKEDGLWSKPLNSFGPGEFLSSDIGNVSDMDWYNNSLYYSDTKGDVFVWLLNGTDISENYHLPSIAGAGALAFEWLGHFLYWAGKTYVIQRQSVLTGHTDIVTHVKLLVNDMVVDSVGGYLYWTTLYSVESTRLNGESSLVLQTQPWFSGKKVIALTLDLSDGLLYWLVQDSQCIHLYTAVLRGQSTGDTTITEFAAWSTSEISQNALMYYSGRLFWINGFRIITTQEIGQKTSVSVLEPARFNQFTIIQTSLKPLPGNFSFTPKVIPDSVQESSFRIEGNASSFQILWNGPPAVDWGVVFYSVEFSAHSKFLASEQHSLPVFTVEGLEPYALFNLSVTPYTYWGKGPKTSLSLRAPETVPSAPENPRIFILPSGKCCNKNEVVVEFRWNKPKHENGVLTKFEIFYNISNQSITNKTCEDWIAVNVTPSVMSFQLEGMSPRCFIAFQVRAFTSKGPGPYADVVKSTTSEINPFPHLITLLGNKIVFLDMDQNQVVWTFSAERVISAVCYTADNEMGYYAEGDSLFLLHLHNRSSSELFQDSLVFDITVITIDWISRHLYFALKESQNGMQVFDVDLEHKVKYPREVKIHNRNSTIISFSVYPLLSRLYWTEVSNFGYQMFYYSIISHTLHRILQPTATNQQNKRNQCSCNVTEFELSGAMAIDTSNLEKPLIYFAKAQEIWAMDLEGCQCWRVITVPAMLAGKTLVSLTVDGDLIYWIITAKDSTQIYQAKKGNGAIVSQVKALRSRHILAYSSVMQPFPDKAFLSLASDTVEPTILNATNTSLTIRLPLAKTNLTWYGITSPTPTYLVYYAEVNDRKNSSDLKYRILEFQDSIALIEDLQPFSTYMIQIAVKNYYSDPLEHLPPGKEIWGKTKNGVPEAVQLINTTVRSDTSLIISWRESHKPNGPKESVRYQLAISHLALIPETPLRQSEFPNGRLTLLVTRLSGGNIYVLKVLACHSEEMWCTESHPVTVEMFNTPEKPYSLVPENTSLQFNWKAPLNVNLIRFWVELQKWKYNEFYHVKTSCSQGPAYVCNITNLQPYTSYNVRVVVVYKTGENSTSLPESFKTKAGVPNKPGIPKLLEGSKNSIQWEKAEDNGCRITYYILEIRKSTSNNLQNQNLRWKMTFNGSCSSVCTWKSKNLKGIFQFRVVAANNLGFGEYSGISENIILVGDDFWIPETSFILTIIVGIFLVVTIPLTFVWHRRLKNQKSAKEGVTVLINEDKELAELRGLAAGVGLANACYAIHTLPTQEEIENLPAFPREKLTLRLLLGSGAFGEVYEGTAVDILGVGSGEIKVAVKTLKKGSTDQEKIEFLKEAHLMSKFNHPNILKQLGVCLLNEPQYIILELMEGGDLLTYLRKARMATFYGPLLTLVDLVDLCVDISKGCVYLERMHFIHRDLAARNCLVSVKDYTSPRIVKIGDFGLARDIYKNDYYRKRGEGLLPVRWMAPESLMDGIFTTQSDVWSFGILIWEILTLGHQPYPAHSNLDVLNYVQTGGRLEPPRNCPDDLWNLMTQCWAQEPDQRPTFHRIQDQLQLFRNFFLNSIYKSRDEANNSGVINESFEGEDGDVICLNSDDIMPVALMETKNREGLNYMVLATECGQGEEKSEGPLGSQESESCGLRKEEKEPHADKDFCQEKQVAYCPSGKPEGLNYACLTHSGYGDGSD

SAPK2b(h) = SAPK2b(h) (Homo sapiens, UniProt Q15759)
Chain of SAPK2b(h) (Q15759 whole entry): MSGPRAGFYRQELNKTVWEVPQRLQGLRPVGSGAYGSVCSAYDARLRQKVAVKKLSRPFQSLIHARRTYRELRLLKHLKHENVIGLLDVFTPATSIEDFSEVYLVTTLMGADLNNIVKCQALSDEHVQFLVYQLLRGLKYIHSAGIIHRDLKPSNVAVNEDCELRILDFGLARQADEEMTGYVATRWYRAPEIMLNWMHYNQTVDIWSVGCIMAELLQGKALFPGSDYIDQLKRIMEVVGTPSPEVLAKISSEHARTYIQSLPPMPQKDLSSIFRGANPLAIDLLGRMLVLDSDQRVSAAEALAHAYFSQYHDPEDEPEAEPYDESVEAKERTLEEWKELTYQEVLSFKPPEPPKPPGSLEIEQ

Src(T341M)(h) = Src(T341M)(h) (Homo sapiens, UniProt P12931, T341M)
ZAP-70(h) = target: T4, ZAP-70(h) (Homo sapiens, UniProt P43403)
T4 sequence (P43403 1-619): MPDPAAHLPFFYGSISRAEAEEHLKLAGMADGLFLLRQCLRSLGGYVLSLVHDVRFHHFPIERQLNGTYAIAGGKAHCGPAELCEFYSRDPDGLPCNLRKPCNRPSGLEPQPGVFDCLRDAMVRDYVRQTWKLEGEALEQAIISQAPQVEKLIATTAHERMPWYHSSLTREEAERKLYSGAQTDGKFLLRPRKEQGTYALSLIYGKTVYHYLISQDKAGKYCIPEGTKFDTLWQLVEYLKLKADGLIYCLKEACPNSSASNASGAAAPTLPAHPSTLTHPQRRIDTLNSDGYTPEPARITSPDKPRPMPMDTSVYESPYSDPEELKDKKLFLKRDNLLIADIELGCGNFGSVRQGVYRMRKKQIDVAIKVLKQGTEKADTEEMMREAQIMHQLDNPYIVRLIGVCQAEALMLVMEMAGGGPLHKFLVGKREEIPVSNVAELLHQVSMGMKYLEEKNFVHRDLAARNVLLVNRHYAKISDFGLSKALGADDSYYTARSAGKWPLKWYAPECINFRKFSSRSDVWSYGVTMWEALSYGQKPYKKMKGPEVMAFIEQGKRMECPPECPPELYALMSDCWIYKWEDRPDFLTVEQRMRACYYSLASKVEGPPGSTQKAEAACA

SRPK2(h) = SRPK2(h) (Homo sapiens, UniProt P78362)
Chain of SRPK2(h) (P78362 whole entry): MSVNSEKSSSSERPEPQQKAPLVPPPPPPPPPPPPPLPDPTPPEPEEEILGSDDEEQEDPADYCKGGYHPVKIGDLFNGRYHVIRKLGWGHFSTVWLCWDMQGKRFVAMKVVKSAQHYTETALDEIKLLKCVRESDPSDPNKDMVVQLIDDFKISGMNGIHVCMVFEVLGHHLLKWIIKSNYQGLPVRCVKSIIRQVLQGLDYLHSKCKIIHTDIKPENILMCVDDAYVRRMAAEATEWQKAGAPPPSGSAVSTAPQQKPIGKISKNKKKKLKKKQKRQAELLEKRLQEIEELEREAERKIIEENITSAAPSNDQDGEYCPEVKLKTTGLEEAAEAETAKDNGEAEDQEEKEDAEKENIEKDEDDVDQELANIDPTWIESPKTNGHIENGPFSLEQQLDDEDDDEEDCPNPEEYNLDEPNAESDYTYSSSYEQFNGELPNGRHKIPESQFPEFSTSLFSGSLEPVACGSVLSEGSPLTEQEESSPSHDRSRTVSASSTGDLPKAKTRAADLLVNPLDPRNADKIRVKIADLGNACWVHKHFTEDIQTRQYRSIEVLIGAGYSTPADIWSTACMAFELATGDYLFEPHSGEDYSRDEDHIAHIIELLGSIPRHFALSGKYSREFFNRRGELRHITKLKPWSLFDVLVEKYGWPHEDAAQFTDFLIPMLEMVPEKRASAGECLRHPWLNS

## FAKLAARLYRKALARQLGVAA [MMI-0300]
ARK5(h)
  % activity: 78%
Hck(h) activated
  % activity: 82%
MINK(h)
  % activity: 48%
NEK3(h)
  % activity: 92%
PDGFRα(V561D)(h)
  % activity: 82%
PDK1(h)
  % activity: 135%
PKCβII(h)
  % activity: 82%
Ros(h)
  % activity: 95%
SAPK2b(h)
  % activity: 81%
Src(T341M)(h)
  % activity: 70%
ZAP-70(h)
  % activity: 75%

## HRRIKAWLKKIKALARQLGVAA [MMI-0500]
ARK5(h)
  % activity: 20%
Hck(h) activated
  % activity: 67%
MINK(h)
  % activity: 5%
NEK3(h)
  % activity: 20%
PDGFRα(V561D)(h)
  % activity: 146%
PDK1(h)
  % activity: 178%
PKCβII(h)
  % activity: 3%
Ros(h)
  % activity: 150%
SAPK2b(h)
  % activity: 42%
Src(T341M)(h)
  % activity: 59%
SRPK2(h)
  % activity: 80%
ZAP-70(h)
  % activity: 1%

## KAFAKLAARLYRKALARQLGVAA [MMI-0400]
ARK5(h)
  % activity: 69%
Hck(h) activated
  % activity: 81%
MINK(h)
  % activity: 52%
NEK3(h)
  % activity: 85%
PDGFRα(V561D)(h)
  % activity: 100%
PDK1(h)
  % activity: 159%
PKCβII(h)
  % activity: 75%
Ros(h)
  % activity: 99%
SAPK2b(h)
  % activity: 82%
Src(T341M)(h)
  % activity: 76%
SRPK2(h)
  % activity: 97%
ZAP-70(h)
  % activity: 33%

## YARAAARQARAKALNRQLGVA [MMI-0200]
ARK5(h)
  % activity: 93%
Hck(h) activated
  % activity: 100%
NEK3(h)
  % activity: 100%
PDK1(h)
  % activity: 143%
PKCβII(h)
  % activity: 100%
Ros(h)
  % activity: 86%
SAPK2b(h)
  % activity: 95%
Src(T341M)(h)
  % activity: 56%
SRPK2(h)
  % activity: 100%
ZAP-70(h)
  % activity: 58%
